In US20230251254A1, “METHOD FOR EVALUATING INTERACTION BETWEEN IMMOBILIZED SUBSTANCE IMMOBILIZED DIRECTLY OR INDIRECTLY ON SUBSTRATE AND PROXIMITY-DEPENDENT MODIFYING ENZYMELABELED SUBSTANCE TO BE ANALYZED” (CELLFREE SCIENCES CO.,LTD., priority 2020, published 2023):
Blank lines part the entries; values can stand above or below the molecule they belong to.

Tests used:
FLAG-GST-fused MDM2 [1] = biological target: T1, FLAG-GST-fused MDM2 (UniProt P23804 1-489); assay: proximity-biotinylation bead array, streptavidin-HRP luminescence; labeling 26°C 1 h; exposure 3 min; the filing calls the signal on this pair non-specific
T1 construct: Immobilized on glutathione magnetic beads on the non-denatured protein array; Order of the parts follows the printed name FLAG-GST; also called FLAG-GST-fused immobilized substance (MDM2); not shown: FLAG tag protein; GST protein (glutathione S-transferase tag)
T1 sequence (P23804 whole entry, the tested form may be a part): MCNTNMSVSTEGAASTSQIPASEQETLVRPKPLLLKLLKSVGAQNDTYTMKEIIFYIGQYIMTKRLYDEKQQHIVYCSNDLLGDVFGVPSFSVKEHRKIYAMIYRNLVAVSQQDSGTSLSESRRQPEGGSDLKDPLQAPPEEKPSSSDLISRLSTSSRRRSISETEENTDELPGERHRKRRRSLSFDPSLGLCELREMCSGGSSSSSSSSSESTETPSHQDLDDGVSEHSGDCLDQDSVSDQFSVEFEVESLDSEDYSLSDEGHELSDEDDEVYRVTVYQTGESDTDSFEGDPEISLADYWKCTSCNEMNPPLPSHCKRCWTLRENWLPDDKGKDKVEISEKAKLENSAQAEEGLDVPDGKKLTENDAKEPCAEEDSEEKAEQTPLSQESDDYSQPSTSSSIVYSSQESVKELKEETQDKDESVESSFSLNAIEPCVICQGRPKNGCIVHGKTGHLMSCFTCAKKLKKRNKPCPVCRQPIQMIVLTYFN

FLAG-GST-fused MDM2 [2] = biological target: T1, FLAG-GST-fused MDM2; assay: proximity-biotinylation bead array, streptavidin-HRP luminescence; labeling 26°C 30 min; exposure 3 min; the filing calls the signal on this pair non-specific
FLAG-GST-fused MDM2 [3] = biological target: T1, FLAG-GST-fused MDM2; assay: proximity-biotinylation bead array, streptavidin-HRP luminescence; labeling 26°C 3 h; exposure 3 min; the filing calls the signal on this pair non-specific
CRBN and SALL4 [4] = biological target: T2, CRBN and SALL4 (Homo sapiens, UniProt Q96SW2); conditions: stated as known; cited from earlier work
T2 sequence (as listed by the source): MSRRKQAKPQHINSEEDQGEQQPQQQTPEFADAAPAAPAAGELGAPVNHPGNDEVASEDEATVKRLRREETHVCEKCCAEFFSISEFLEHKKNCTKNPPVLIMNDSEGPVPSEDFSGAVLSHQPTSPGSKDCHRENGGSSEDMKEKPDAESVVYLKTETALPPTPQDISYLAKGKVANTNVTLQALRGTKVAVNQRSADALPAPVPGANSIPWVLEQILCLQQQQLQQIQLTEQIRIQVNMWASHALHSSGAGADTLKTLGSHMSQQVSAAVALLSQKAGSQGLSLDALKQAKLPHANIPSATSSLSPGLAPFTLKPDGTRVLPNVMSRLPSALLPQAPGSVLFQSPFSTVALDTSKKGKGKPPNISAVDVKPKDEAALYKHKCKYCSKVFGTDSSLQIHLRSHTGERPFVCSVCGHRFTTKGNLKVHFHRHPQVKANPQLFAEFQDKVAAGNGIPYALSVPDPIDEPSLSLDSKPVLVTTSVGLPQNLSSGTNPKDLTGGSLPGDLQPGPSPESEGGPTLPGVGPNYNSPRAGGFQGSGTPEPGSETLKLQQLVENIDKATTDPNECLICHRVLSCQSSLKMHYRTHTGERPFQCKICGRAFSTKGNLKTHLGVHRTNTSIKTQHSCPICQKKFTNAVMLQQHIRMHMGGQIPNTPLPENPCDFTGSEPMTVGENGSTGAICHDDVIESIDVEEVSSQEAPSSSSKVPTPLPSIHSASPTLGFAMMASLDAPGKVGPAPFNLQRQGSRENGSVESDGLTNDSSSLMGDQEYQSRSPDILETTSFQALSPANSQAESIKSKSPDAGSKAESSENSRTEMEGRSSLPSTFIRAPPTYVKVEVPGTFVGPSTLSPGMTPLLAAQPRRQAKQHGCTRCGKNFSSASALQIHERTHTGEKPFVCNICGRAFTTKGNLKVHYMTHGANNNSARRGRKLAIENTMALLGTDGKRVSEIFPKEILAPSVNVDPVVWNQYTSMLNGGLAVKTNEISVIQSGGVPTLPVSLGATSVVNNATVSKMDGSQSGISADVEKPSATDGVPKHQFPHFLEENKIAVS
T2 sequence (Q96SW2 whole entry, the tested form may be a part): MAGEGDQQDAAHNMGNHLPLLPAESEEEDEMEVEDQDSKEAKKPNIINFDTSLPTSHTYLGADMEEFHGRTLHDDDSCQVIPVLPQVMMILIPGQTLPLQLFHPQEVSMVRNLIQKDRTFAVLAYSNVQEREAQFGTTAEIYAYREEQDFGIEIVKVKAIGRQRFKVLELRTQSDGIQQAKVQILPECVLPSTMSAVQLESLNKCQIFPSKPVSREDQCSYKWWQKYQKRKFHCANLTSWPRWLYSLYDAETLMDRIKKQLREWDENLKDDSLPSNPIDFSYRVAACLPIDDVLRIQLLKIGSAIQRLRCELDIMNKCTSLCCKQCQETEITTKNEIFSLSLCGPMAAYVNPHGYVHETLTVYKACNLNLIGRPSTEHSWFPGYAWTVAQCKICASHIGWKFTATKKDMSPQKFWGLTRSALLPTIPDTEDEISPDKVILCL

CRBN and IKZF1 [5] = biological target: T3, CRBN and IKZF1 (Homo sapiens, UniProt Q96SW2); conditions: compound added to reaction buffer; AirID-fused CRBN
T3 sequence (Q96SW2 whole entry, the tested form may be a part): as above
T3 sequence (as listed by the source): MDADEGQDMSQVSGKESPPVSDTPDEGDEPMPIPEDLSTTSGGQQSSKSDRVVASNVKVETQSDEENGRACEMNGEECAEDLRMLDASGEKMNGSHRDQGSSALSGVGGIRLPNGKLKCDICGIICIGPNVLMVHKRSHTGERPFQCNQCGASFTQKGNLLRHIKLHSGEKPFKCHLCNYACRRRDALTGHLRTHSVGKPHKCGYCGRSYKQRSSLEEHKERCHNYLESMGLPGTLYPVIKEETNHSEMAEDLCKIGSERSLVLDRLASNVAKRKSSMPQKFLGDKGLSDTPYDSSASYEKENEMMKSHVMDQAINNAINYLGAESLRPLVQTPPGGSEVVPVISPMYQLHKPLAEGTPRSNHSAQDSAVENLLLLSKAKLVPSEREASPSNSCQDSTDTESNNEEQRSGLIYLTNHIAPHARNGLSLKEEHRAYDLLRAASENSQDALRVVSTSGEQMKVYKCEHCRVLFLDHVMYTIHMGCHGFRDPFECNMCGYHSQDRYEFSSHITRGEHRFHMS
Protocol: (§1) In this Example, an interaction between proteins known to bind to each other, CRBN (SEQ ID NO: 7) and IKZF1 (SEQ ID NO: 6) or SALL4 (SEQ ID NO: 9), was analyzed. […] In view of this, the compound (thalidomide derivative) was added to a buffer to be used for a reaction to analyze how CRBN interacted with IKZF1 or SALL4 in a compound-dependent (binding recruiter) manner. The flow of this Example is illustrated in FIG. 3.
(§2) As a substance to be analyzed (protein), template DNA in which CRBN was fused to AirID and template DNA in which a mutant CRBN (SEQ ID NO: 8) having a mutation introduced into its binding site for the thalidomide derivative was fused to AirID were synthesized. As an immobilized substance (protein), template DNA was synthesized by fusing IKZF1, SALL4, or Venus (control) for comparison to a FLAG™ tag protein and a GST protein.
(§3) The synthesized template DNAs were used to synthesize AirID-fused substances to be analyzed and FLAG™-GST-fused immobilized substances through use of a wheat cell-free expression system.
(§4) The FLAG™-GST-fused immobilized substance (IKZF1, SALL4, or Venus) was bound to glutathione magnetic beads, followed by purification. The magnetic beads after the purification were dispensed and arranged on the wells of the plate, and immobilized by the magnetic force of the magnet plate.
(§5) The AirID-fused substance to be analyzed (CRBN or mutant CRBN) diluted with a reaction buffer containing biotin and ATP was allowed to react with the FLAG™-GST-fused immobilized substance (IKZF1, SALL4, or Venus) on the magnetic beads to perform biotin labeling of the FLAG™-GST-fused immobilized substance.
(§6) In order to remove the AirID-fused substance to be analyzed that was free in the reaction buffer or adsorbed onto the magnetic beads, the reaction buffer was removed and then washing was performed a plurality of times with a washing buffer.

CRBN and IKZF1 [6] = biological target: CRBN and IKZF1 (Homo sapiens, UniProt Q96SW2, W386A/Y384A); conditions: mutant CRBN having a mutation in its binding site for the compound
Chain of CRBN and IKZF1 (Homo sapiens, UniProt Q96SW2, W386A/Y384A) (Q96SW2 whole entry Y384A/W386A): as the sequence (Q96SW2 whole entry, the tested form may be a part) above, with Y384A, W386A counted along it
Protocol: as §1, §2, §3, §4, §5, §6

CRBN and SALL4 [7] = biological target: T2, CRBN and SALL4; conditions: compound added to reaction buffer; AirID-fused CRBN
Protocol: as §1, §2, §3, §4, §5, §6

CRBN and SALL4 [8] = biological target: CRBN and SALL4 (Homo sapiens, UniProt Q96SW2, W386A/Y384A); conditions: mutant CRBN having a mutation in its binding site for the compound
Chain of CRBN and SALL4 (Homo sapiens, UniProt Q96SW2, W386A/Y384A) (Q96SW2 whole entry Y384A/W386A): as the sequence (Q96SW2 whole entry, the tested form may be a part) above, with Y384A, W386A counted along it
Protocol: as §1, §2, §3, §4, §5, §6

CRBN and IKZF1 [9] = biological target: T3, CRBN and IKZF1; conditions: stated as known; cited from earlier work
MDM2 = biological target: T4, MDM2 (Mus musculus, UniProt P23804); assay: AirID proximity-dependent biotin labeling on non-denatured protein array, TP53 and MDM2 (Example 2); type: binding; conditions: AirID-fused TP53; FLAG-GST-MDM2 on magnetic beads; HRP-labeled streptavidin
T4 construct: made in house; host or cells: wheat cell-free protein synthesis
T4 sequence (P23804 whole entry, the tested form may be a part): as the sequence (P23804 whole entry, the tested form may be a part) above
Source text: (§7) As a substance to be analyzed, template DNA in which TP53 (SEQ ID NO: 4) or Iκβα (SEQ ID NO: 5) was fused to AirID (SEQ ID NO: 3) was synthesized. As an immobilized substance (target protein), template DNA in which MDM2 (SEQ ID NO: 10), RelA (SEQ ID NO: 11), or any one of 10 kinds of proteins (controls) for comparison was fused to a FLAG™ tag protein and a GST protein was synthesized.
(§8) Thus, a non-denatured protein array was produced.

FLAG-GST-fused RelA [10] = biological target: T5, FLAG-GST-fused RelA (UniProt Q04206 1-551); assay: proximity-biotinylation bead array, streptavidin-HRP luminescence; labeling 26°C 1 h; exposure 3 min; the filing calls the signal on this pair non-specific
T5 construct: Immobilized on glutathione magnetic beads on the non-denatured protein array; Order of the parts follows the printed name FLAG-GST; also called FLAG-GST-fused immobilized substance (RelA); not shown: FLAG tag protein; GST protein (glutathione S-transferase tag)
T5 sequence (Q04206 other isoform, or with tags, fused parts or gaps): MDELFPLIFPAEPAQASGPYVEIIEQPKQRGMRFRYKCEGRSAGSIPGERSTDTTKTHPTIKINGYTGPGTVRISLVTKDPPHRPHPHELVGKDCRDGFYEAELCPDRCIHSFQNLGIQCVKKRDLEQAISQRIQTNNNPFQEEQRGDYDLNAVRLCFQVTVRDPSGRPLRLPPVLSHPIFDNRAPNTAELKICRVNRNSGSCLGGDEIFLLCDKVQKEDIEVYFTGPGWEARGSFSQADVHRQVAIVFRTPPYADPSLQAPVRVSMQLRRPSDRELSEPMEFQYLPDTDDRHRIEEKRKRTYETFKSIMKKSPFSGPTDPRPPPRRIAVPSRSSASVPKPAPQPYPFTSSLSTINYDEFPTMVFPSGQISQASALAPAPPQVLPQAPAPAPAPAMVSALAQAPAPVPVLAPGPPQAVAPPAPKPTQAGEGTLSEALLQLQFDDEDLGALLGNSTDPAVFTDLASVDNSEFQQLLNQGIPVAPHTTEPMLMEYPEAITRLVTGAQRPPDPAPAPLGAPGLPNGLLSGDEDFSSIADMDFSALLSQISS

FLAG-GST-fused RelA [11] = biological target: T5, FLAG-GST-fused RelA; assay: proximity-biotinylation bead array, streptavidin-HRP luminescence; labeling 26°C 30 min; exposure 3 min; the filing calls the signal on this pair non-specific
FLAG-GST-fused RelA [12] = biological target: T5, FLAG-GST-fused RelA; assay: proximity-biotinylation bead array, streptavidin-HRP luminescence; labeling 26°C 3 h; exposure 3 min; the filing calls the signal on this pair non-specific
FLAG-GST-fused RelA [13] = biological target: T5, FLAG-GST-fused RelA; assay: proximity-biotinylation bead array, streptavidin-HRP luminescence; labeling 37°C 24 h; exposure 10 min
FLAG-GST-fused MDM2 [14] = biological target: T1, FLAG-GST-fused MDM2; assay: as above
FLAG-GST-fused MDM2 [15] = biological target: T1, FLAG-GST-fused MDM2; assay: proximity-biotinylation bead array, streptavidin-HRP luminescence; labeling 26°C 3 h; exposure 10 min
FLAG-GST-fused RelA [16] = biological target: T5, FLAG-GST-fused RelA; assay: as above
FLAG-GST-fused MDM2 [17] = biological target: T1, FLAG-GST-fused MDM2; assay: proximity-biotinylation bead array, streptavidin-HRP luminescence; labeling 26°C 1 h; exposure 10 min
FLAG-GST-fused RelA [18] = biological target: T5, FLAG-GST-fused RelA; assay: as above
RelA = biological target: T6, RelA (Homo sapiens, UniProt Q04206); assay: AirID proximity-dependent biotin labeling on non-denatured protein array, Iκβα and RelA (Example 2); type: binding; conditions: AirID-fused Iκβα; FLAG-GST-RelA on magnetic beads; HRP-labeled streptavidin
T6 construct: made in house; host or cells: wheat cell-free expression system
T6 sequence (Q04206 1-548 isoform Q04206-4): as the sequence (Q04206 other isoform, or with tags, fused parts or gaps) above
Source text: as §7, §8

FLAG-GST-fused MDM2 [19] = biological target: T1, FLAG-GST-fused MDM2; assay: proximity biotinylation by AirID fusion on bead protein array, streptavidin-HRP luminescence image
Protocol: The washing buffer was removed, and an HRP-labeled streptavidin solution diluted with the reaction buffer was added and allowed to react with the FLAG™-GST-fused immobilized substance on the magnetic beads. In order to remove free streptavidin, the reaction buffer was removed and then washing was performed a plurality of times with a washing buffer. After the removal of the washing buffer, a chemiluminescence reagent was added and subjected to a reaction. The resultant luminescence was detected with LAS4000 (manufactured by GE Healthcare) to provide measurement images.

FLAG-GST-fused MDM2 [20] = biological target: T1, FLAG-GST-fused MDM2; assay: proximity-biotinylation bead array, streptavidin-HRP luminescence; labeling 26°C 30 min; exposure 10 min
FLAG-GST-fused RelA [21] = biological target: T5, FLAG-GST-fused RelA; assay: as above

Molecule: TurboID-fused Iκβα
signal value (FLAG-GST-fused MDM2 [1]): > 65000
signal value (FLAG-GST-fused MDM2 [2]): 7030
signal value (FLAG-GST-fused MDM2 [3]): > 65000

Molecule: TP53: TP53 (SEQ ID NO: 4), fused to AirID as substance to be analyzed in Example 2
luminescence (biotin detection) between TP53 and MDM2 (MDM2): recognized

B1: AirID-fused Iκβα (other)
chain: MKDNTVPLTLISILADGEFHSGEQLGEQLGMSRAAINKHIKTLRDWGVDVFRVQGKGYCLPEPIQLLDEEKIRQQLDEGSVTVLPVIDSTNQYLLDRLDELTSGDVCIAEYQQAGRGSRGRKWFSPFGANLYLSMYWRLEQGPAAAMGLSLVIGIVMAETLQKLGADGVRVKWPNDLYLNDRKLAGILVEMTGKTGDAAHIVIGAGINLSMREPETDEVDQSWINLQEAGITIDRNQLAARLIKDLRSALRQFEQQGLAPFLSRWEALDNFINRPVKLIIGDREIHGIARGINEQGALLLEQDGVIKPWIGGEISLRSAMFQAAERPQEWAMEGPRDGLKKERLLDDRHDSGLDSMKDEEYEQMVKELQEIRLEPQEVPRSSEPWKQQLTEDGDSFLHLAIIHEEKALTMEVIRQVKGDLAFLNFQNNLQQTPLHLAVITNQPEIAEALLGAGCDPELRDFRGNTPLHLACEQGCLASVGVLTQSCTTPHLHSILKATNYNGHTCLHLASIHGYLGIVELLVSLGADVNAQEPCNGRTALHLAVDLQNPDLVSLLLKCGADVNRVTYQGYSPYQLTWGRPSTRIQQQLGQLTLENLQMLPESEDEESYDTESEFTEFTEDELPYDDCVFGGQRLTL
notes: Fusion made in a wheat cell-free system; also called AirID-fused substance to be analyzed (Iκβα)
signal value (FLAG-GST-fused MDM2 [15]): 520
signal value (FLAG-GST-fused RelA [16]): 48000
signal value (FLAG-GST-fused MDM2 [17]): 690
signal value (FLAG-GST-fused RelA [18]): 28000
luminescence (biotin detection) between Iκβα and RelA (RelA): recognized
binding result (FLAG-GST-fused MDM2 [19]): no binding
signal value (FLAG-GST-fused MDM2 [20]): 370
signal value (FLAG-GST-fused RelA [21]): 7940

Continued, in another order:

luminescence intensity of CRBN and IKZF1 (CRBN and IKZF1 [5]): particularly increased
luminescence intensity of mutant CRBN and IKZF1 (CRBN and IKZF1 [6]): hardly any increase
luminescence intensity of CRBN and SALL4 (CRBN and SALL4 [7]): particularly increased
luminescence intensity of mutant CRBN and SALL4 (CRBN and SALL4 [8]): hardly any increase
Molecule: Nc1cccc2c1C(=O)N(C1CCC(=O)NC1=O)C2=O (centres unmarked) [Pomalidomide]
effect on binding of CRBN and SALL4 (CRBN and SALL4 [4]): enhance their binding
effect on binding of CRBN and IKZF1 (CRBN and IKZF1 [9]): enhance their binding

signal value (FLAG-GST-fused RelA [10]): > 65000
signal value (FLAG-GST-fused RelA [11]): 10200
signal value (FLAG-GST-fused RelA [12]): > 65000
Molecule: TurboID-fused TP53

signal value (FLAG-GST-fused RelA [13]): 1860
Molecule: BioID-fused TP53

signal value (FLAG-GST-fused MDM2 [14]): 4530
Molecule: BioID-fused Iκβα
